For two molecules, pseudovirus neutralization IC50 results are on record in patent publication US20230250157A1.

The assay deals with sarbecoviruses tested (pseudovirus spikes). Put plainly: cell-based or functional assay.

B1: HSW-1 (antibody, V domains shown)
VH: QVQLQQPGAELVKPGTSMKLSCKASGYTFTSYWMHWVKQRPGQGLEWIGMIHPNSGSTKYNENFKSKATLTVDKSSSTAYMQFSSLTSEDSAVYYCVRSGSYYGTTYDYFDYWGQGTTLTVSS
VL: DIVLTQSPASLAVSLGQRATISCRASESVNIYGNSFMHWYQQKPGQPPKLLIFRASNLESGIPVRFSGSGSRTDFTLTINPVEADDVATYYCHQSNEDPFTFGSGTKLEIK
The molecule B1 returned a pseudovirus neutralization IC50 greater than 10 µg/mL.

B2: HSW-2 (antibody, V domains shown)
VH: QVQLQQSGPELVKPGASVKISCKASGYVFSTSWMSWVKQRPGEGPEWIGRIYPRDGHSSSTGKFKDKATLTADKSSNTAYIHLSSLTSEDSAVYFCARDYGYYYFDYWGQGTTLTVSS
VL: DIQMTQSPASLSASVGEAVTITCRLSENVYSFLAWYQQKQGKSPQLLVYRAKTLAEGVPSRFSGSGSGTQFSLKINSLQPEDFGTYYCQHHYGTPPTFGGGTKLEIK
Regarding B2, the pseudovirus neutralization IC50 is greater than 10 µg/mL.
